US20210269542A1 (POTENZA THERAPEUTICS, published 2021)
Numbering of substitutions follows the chain as printed. Numbers in names are those of the source. One block for each binder: values may come before it.

Legend:
[1] = target: T1, cynomolgus monkey GITR expressed on HT1080 cells (cynomolgus monkey); experiment: cell-based or functional assay
T1 chain: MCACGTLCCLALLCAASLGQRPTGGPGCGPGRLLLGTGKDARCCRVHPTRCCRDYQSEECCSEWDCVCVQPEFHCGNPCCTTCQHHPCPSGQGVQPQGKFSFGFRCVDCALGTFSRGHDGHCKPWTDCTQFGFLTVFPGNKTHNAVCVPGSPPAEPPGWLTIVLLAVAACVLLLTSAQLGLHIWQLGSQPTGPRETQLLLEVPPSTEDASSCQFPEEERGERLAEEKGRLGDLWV

[2] = target: T2, human GITR expressed on cells (human, UniProt Q9Y5U5 26-241); experiment: cell-based or functional assay
T2 sequence: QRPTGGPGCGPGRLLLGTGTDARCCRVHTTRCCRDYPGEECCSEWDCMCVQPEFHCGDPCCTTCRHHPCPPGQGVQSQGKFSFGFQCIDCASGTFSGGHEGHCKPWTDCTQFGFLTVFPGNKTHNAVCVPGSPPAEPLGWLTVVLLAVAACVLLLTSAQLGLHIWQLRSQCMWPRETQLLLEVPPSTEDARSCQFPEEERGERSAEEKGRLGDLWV

[3] = target: T3, human GITR-Fc (human, UniProt Q9Y5U5 26-162); experiment: BLI Octet RED384, ABP on AHQ sensor, 100 nM antigen, single concentration;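 note: association and dissociation each tracked over 180 s, with dissociation run in antigen-free buffer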
T3 construct: also called recombinant hGITR; wild type human GITR-Fc
T3 sequence: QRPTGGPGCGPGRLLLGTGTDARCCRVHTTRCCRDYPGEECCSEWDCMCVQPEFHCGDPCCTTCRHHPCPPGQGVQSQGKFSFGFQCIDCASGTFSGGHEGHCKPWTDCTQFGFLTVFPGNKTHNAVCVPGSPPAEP
Method: (§1) The sensors were quenched by dipping into an unrelated human IgG1 antibody to prevent non-specific binding of GITR-Fc antigens to the sensor. The sensors were equilibrated in assay buffer for 30 minutes. Baseline was established by dipping the sensors into assay buffer for 60 seconds. Association was monitored for 180 seconds in 100 nM of recombinant antigens, and dissociation was followed for 180 seconds in buffer alone. KD was determined using the kinetic function of the FORTEBIO® Analysis Software using a 1:1 binding model.

[4] = target: T4, cyno GITR-Fc (cynomolgus monkey); experiment: as above
T4 construct: also called cGITR; cynomolgus GITR
T4 chain: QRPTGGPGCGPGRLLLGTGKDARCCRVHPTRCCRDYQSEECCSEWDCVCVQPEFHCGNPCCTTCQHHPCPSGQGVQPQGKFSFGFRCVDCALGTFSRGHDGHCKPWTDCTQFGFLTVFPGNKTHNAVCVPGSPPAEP
Method: as §1

[5] = target: T2, human GITR expressed on cells; experiment: cell-based or functional assay; remark: listed apart in the source

EC50 in cynomolgus HT1080 (IL-8 induction), n = 1 [1]: 15.1 nM
EC50 in human HT1080 (IL-8 induction), n = 2 [2]: 10.5 nM
Kd [3]: 112 nM
B1: ABP45 (antibody, human IgG1, kappa, N297A, V domains shown)
VH: QVQLVQSGAEVKKPGSSVKVSCKASGGTFSRGAISWVRQAPGQGLEWMGGIIPIEGTAYYAQKFQGRVTITADESTSTAYMELSSLRSEDTAVYYCARQSDYGLPRGMDVWGQGTTVTVSS
VL: DIQLTQSPSSVSASVGDRVTITCRASQGISSWLAWYQQKPGKAPKLLIYGASSLQSGVPSRFSGSGSGTDFTLTISSLQPEDFATYYCQQASLFPPTFGGGTKVEIKR
notes: IgG1 N297A, H1H2-optimized, non-TM

EC50 in cynomolgus HT1080 (IL-8 induction), n = 1 [1]: 65.8 nM
EC50 in human HT1080 (IL-8 induction), n = 2 [2]: 2.7 nM
Kd [3]: 63.5 nM
binding result [4]: no binding (tested: 100 nM)
B2: ABP49 (antibody, human IgG1, kappa, N297A, V domains shown)
VH: QVQLQESGPGLVKPSQTLSLTCTVSGGSISSGGAVWSWIRQHPGKGLEWIGGIAYSGSTYYNPSLKSRVTISVDTSKNQFSLKLSSVTAADTAVYYCARDSVRGYGDYGGHHAFDIWGQGTMVTVSS
VL: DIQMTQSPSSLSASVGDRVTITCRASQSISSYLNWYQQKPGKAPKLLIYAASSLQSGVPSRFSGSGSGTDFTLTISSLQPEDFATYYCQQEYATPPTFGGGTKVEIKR
notes: as for B1

EC50 in human HT1080 (IL-8 induction), n = 2 [2]: 17.8 nM
Kd [3]: 11.5 nM
binding result [4]: no binding (tested: 100 nM)
B3: ABP42 (antibody, human IgG1, kappa, N297A, V domains shown)
VH: QLQLQESGPGLVKPSETLSLTCTVSGGSISSSSYAWGWIRQPPGKGLEWIGSIYYSGSTYYNPSLKSRVTISVDTSKNQFSLKLSSVTAADTAVYYCARDSGRGYGDYGGHHAFDIWGQGTMVTVSS
VL: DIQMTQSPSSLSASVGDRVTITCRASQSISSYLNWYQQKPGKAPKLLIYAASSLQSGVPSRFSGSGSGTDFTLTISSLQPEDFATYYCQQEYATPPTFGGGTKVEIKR
notes: IgG1 N297A, non-optimized, non-TM

EC50 in cynomolgus HT1080 (IL-8 induction), n = 1 [1]: 28 nM
EC50 in human HT1080 (IL-8 induction), n = 2 [2]: 4.2 nM
Kd [3]: 46.5 nM
B4: ABP44 (antibody, human IgG1, kappa, N297A, V domains shown)
VH: QVQLVQSGAEVKKPGSSVKVSCKASGGTFSSYYISWVRQAPGQGLEWMGGIIPVPGTANYAQKFQGRVTITADESTSTAYMELSSLRSEDTAVYYCARAGGGYARGDHYYGMDVWGQGTTVTVSS
VL: not shown
notes: as for B1

Kd [3]: 4.4 nM
Kd [4]: 5.2 nM
Average EC50 in human HT1080 (IL-8 induction) [5]: 0.63 nM
B5: ABP20 (antibody, human IgG4 S228P, kappa)
heavy: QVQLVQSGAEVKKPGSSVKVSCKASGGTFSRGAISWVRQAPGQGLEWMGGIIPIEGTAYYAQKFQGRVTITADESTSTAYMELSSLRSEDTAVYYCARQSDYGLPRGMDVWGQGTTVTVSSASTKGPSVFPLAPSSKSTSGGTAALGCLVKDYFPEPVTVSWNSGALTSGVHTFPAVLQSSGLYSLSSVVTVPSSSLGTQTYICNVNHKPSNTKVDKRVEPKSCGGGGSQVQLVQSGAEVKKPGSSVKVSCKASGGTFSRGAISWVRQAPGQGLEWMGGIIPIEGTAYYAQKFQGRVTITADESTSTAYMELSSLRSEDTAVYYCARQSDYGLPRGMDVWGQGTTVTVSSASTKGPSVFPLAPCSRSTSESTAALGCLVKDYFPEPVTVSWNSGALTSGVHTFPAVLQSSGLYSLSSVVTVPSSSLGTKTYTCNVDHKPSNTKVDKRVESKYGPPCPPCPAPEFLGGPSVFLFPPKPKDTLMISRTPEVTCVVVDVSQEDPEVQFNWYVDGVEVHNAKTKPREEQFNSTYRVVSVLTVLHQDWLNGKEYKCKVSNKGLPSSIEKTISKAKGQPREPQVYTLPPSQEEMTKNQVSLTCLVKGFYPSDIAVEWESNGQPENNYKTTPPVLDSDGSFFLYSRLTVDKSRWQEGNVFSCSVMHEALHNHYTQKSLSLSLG
light: DIQLTQSPSSVSASVGDRVTITCRASQGISSWLAWYQQKPGKAPKLLIYGASSLQSGVPSRFSGSGSGTDFTLTISSLQPEDFATYYCQQASLFPPTFGGGTKVEIKRTVAAPSVFIFPPSDEQLKSGTASVVCLLNNFYPREAKVQWKVDNALQSGNSQESVTEQDSKDSTYSLSSTLTLSKADYEKHKVYACEVTHQGLSSPVTKSFNRGEC
notes: TM format, N-terminal Fab: VH + IgG1 CH1 + GGGGS + VH + IgG4 S228P

Kd [3]: 5.1 nM
Kd [4]: 5.1 nM
Average EC50 in human HT1080 (IL-8 induction) [5]: 0.63 nM
B6: ABP26 (antibody, human IgG4 S228P, kappa)
heavy: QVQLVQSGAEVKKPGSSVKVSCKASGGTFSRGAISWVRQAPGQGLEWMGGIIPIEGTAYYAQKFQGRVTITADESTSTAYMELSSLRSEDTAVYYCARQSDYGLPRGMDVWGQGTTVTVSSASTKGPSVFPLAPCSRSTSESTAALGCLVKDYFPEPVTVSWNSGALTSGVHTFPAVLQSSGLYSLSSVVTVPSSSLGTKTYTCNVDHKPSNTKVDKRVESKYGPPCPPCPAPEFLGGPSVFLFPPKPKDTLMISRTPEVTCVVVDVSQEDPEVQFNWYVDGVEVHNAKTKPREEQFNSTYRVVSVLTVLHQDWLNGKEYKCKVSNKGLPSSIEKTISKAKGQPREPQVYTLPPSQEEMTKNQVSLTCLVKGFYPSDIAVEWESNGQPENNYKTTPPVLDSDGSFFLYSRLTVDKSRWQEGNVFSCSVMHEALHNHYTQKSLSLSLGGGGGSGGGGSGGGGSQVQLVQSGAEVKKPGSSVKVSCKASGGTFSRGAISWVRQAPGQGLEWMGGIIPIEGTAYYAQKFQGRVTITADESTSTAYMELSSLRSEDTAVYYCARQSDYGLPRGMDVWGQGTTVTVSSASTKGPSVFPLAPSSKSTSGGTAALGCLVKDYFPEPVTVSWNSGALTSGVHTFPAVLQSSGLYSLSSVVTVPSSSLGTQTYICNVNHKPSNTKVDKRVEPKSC
light: B5 light

EC50 in cynomolgus HT1080 (IL-8 induction), n = 1 [1]: 6.9 nM
EC50 in human HT1080 (IL-8 induction), n = 2 [2]: 1.2 nM
Kd [3]: 59.8 nM
Kd [4]: 111 nM
B7: ABP46 (antibody, human IgG1, kappa, N297A, V domains shown)
VH: QVQLVQSGAEVKKPGSSVKVSCKASGGTFSSYAISWVRQAPGQGLEWMGGIIPISGFANYAQKFQGRVTITADESTSTAYMELSSLRSEDTAVYYCAREGGHYYSGWPYWGQGTLVTVSS
VL: EIVLTQSPATLSLSPGERATLSCRASQSVSSYLAWYQQKPGQAPRLLIYDASNRATGIPARFSGSGSGTDFTLTISSLEPEDFAVYYCQQRLVFPPTFGGGTKVEIKR
notes: as for B1

EC50 in cynomolgus HT1080 (IL-8 induction), n = 1 [1]: 11.8 nM
EC50 in human HT1080 (IL-8 induction), n = 2 [2]: 4.1 nM
Kd [3]: 44.3 nM
Kd [4]: 88.1 nM
B8: ABP47 (antibody, human IgG1, kappa, N297A, V domains shown)
VH: QVQLVQSGAEVKKPGSSVKVSCKASGGTFVRYAISWVRQAPGQGLEWMGGIIPIFGEAQYAQKFQGRVTITADESTSTAYMELSSLRSEDTAVYYCAREGYYYGALPYWGQGTLVTVSS
VL: B7 VL with R91H, L92S
notes: as for B1
